These results are taken from paper PMC9056527, “Aptamer loaded superparamagnetic beads for selective capturing and gentle release of activated protein C”.

One data set concerns the target human α-thrombin (human) (UniProt P00734).
The target in data set [1] is T1, activated protein C (APC) (UniProt P04070;P04070 43-197;212-461). As to the kind of experiment: pull-down (aptamer-loaded magnetic beads); Ca2+ binding buffer; 10 µg APC; Binding buffer with Ca2+ (composition not in material); elution buffer 10 mM Tris-HCl, 144 mM NaCl, pH 7.4, 5 mM EDTA; bead capture at RT, 30 min. The note with it: protein: commercial; copies: 1;1.

In data set [2] the target is T1, activated protein C (APC). The data set is described as follows: BLI; dissociation in binding buffer (Ca2+); 500 nM APC; Binding buffer with Ca2+ (composition not in material); elution buffer 10 mM Tris-HCl, 144 mM NaCl, pH 7.4, 5 mM EDTA; bead capture at RT, 30 min. The note with it: protein: commercial; copies: 1;1; label: 3'-TEG-biotin.
Data set [3] concerns the target T1, activated protein C (APC). As to the kind of experiment: pull-down (aptamer-loaded magnetic beads); Ca2+ binding buffer; eluted with 5 mM EDTA; Binding buffer with Ca2+ (composition not in material); elution buffer 10 mM Tris-HCl, 144 mM NaCl, pH 7.4, 5 mM EDTA; bead capture at RT, 30 min. The note with it: protein: commercial; copies: 1;1.
In data set [4] the target is protein C (PC, zymogen, Ceprotin) (UniProt P04070;P04070 43-197;200-461). The data set is described as follows: pull-down (aptamer-loaded magnetic beads); PC activation mixture; PC in eluate below <0.2-0.24 µg/ml; Binding buffer with Ca2+ (composition not in material); elution buffer 10 mM Tris-HCl, 144 mM NaCl, pH 7.4, 5 mM EDTA; bead capture at RT, 30 min. The note with it: protein: commercial; copies: 1;1.
protein C (PC, zymogen, Ceprotin), sequence (P04070 43-197, chain 1 of 2): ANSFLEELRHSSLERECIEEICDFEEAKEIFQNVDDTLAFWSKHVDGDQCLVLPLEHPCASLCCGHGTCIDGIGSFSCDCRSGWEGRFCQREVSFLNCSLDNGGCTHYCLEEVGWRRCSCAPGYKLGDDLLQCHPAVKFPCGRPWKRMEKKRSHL
protein C (PC, zymogen, Ceprotin), sequence (P04070 200-461, chain 2 of 2): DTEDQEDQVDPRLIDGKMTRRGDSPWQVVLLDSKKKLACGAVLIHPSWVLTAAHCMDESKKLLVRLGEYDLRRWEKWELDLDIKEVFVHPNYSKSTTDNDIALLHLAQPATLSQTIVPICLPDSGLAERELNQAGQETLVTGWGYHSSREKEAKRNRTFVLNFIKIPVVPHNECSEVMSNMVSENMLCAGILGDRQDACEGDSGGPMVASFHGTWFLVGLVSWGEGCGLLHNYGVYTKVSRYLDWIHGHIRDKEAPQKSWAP

T1 sequence (P04070 43-197, chain 1 of 2): as the sequence (P04070 43-197, chain 1 of 2) above
T1 sequence (P04070 212-461, chain 2 of 2): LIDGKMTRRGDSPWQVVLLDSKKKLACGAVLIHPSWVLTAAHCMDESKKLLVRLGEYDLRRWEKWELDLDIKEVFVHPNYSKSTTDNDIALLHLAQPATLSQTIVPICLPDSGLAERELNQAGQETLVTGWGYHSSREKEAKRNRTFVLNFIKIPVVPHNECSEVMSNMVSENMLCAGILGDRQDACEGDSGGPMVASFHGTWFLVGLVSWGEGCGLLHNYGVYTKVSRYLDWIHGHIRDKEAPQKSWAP

“recombinant hirudin (Refludan, Bayer Health Care) (natural protein)”: in the data set with human α-thrombin (human), the IC50 of hirudin for thrombin-catalysed hydrolysis of the fluorogenic substrate Boc-Asp(OBzl)-Pro-Arg-AMC; 2.5 µg/ml (68 nM) thrombin, hirudin 14 nM to 14 µM, 30 min in activation buffer was found to be 0.17 µM; the IC50 of hirudin for thrombin-catalysed hydrolysis of the fluorogenic substrate Boc-Asp(OBzl)-Pro-Arg-AMC; 12.5 µg/ml (341 nM) thrombin, hirudin 14 nM to 14 µM, 30 min in activation buffer was found to be 1.96 µM; the IC50 of hirudin for thrombin-catalysed hydrolysis of the fluorogenic substrate Boc-Asp(OBzl)-Pro-Arg-AMC; 20 µg/ml (545 nM) thrombin, hirudin 14 nM to 14 µM, 30 min in activation buffer amounted to 2.26 µM.

B1: AD02-52 (antisense control) (ssDNA)
DNA: GCCTCCTAAGAGCCCCATCCGGGATAAGTCGAGTACAGCTCAGTTAGGAGGC
modifications: 3'-HEG-amino
Consider B1, for which the binding result in data set [1] is recorded as “no binding”.

B2: HS02-52G (ssDNA)
DNA: GCCTCCTAACTGAGCTGTACTCGACTTATCCCGGATGGGGCTCTTAGGAGGC
In the case of B2, the binding result in data set [2] is recorded as “binds”.

B3: HS02-52G-NH2 (ssDNA)
DNA: B2 DNA
modifications: 3'-HEG-amino
B3: the binding result in data set [3] is recorded as “binds”; in data set [4] it was “no binding”.
